Source: US20240390512A1 (Daiichi Sankyo, published 2024)

T1: EC3 deletion mutant of human CDH6, on cells (human, UniProt P55285 54-790)
T1 construct: in p3×FLAG-CMV-9; also called EC3-deleted hCDH6
T1 sequence: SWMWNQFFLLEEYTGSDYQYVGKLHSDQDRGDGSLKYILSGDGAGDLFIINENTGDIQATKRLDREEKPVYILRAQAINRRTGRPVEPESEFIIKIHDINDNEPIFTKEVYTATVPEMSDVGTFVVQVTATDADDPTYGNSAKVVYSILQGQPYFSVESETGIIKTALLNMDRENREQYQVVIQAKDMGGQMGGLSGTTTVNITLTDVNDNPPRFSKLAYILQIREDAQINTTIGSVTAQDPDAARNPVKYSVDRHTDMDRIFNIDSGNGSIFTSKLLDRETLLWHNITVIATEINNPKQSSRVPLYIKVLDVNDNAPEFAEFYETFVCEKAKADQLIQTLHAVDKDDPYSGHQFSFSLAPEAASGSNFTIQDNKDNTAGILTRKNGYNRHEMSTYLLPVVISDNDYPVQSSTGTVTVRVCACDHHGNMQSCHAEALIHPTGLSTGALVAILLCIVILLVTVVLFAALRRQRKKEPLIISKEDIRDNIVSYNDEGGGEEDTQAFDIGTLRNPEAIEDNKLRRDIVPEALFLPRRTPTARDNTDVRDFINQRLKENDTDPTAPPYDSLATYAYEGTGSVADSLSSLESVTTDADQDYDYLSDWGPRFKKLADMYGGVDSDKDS

T2: cynomolgus monkey CDH6, on cells (cynomolgus monkey, UniProt P55285 54-790 (human entry))
T2 construct: Expressed from pcDNA3.1-cynoCDH6; also called cynoCDH6
T2 sequence: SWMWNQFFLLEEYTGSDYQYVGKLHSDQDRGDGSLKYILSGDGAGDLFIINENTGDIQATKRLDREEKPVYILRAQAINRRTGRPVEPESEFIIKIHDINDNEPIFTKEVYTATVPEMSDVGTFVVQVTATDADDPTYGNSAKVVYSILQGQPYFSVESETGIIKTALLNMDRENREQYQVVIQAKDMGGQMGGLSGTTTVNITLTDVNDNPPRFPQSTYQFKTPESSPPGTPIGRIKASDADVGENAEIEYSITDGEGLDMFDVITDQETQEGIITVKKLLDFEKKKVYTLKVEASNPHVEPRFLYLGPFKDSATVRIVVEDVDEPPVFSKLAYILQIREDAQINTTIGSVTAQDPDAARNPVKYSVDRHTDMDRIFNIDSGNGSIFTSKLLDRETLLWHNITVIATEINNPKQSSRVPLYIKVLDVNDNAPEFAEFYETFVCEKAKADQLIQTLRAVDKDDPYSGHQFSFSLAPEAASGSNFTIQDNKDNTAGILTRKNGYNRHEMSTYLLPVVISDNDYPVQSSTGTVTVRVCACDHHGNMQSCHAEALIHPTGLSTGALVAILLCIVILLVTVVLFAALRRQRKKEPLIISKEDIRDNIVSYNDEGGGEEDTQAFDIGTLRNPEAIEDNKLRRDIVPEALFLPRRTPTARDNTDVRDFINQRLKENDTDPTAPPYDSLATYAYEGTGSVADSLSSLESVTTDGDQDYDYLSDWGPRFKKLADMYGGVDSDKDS

T3: human CDH6 (cadherin-6), full-length, on cells (human, UniProt P55285 54-790)
T3 construct: also called hCDH6; full-length hCDH6
T3 sequence: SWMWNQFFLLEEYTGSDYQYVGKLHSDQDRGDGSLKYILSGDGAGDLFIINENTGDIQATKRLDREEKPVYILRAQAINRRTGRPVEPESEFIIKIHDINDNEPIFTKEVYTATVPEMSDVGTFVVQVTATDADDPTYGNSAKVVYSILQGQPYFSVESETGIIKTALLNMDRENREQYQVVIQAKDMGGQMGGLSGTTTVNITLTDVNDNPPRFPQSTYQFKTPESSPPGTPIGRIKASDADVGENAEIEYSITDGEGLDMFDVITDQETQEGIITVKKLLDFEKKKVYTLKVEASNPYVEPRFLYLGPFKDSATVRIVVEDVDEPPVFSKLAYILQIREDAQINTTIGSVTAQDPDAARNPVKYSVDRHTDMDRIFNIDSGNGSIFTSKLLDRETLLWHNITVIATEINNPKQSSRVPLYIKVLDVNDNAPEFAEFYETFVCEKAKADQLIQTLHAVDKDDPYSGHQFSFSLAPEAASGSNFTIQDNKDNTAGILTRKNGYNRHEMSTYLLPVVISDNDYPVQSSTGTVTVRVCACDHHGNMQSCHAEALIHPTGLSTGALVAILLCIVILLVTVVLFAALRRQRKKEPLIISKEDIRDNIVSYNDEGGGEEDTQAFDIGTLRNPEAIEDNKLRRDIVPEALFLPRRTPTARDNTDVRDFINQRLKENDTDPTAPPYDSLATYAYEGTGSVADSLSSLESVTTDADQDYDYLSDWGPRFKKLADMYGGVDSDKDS


What was measured:
[1] = target: T1, EC3 deletion mutant of human CDH6, on …; assay: flow cytometry; 293α cells transfected with EC3-deleted hCDH6 (open line) against untransfected 293α cells (shaded); anti-rat IgG-FITC
[2] = target: T2, cynomolgus monkey CDH6, on cells; assay: Cell-ELISA and flow cytometry screening with hybridoma supernatants on transfected cells
[3] = target: T3, human CDH6 (cadherin-6), full-length, …; assay: flow cytometry; hCDH6-transfected 293T cells (open line) against untransfected 293T cells (shaded); antibody 10 ng/mL; anti-rat IgG-FITC

Row | Binder | binding result [1] | binding result [2] | binding result [3]
1 | rat anti-human CDH6 monoclonal antibody rG055 (antibody, rat IgG2b, V domains shown, Purified from hybridoma supernatant; also called rG055 antibody) VH: EVQLQESGPGLVRPSQSLSLSCSVTDYSITSNYWGWIRRFPGNKMEWMGYITYSGYTSYNPSLQSRISITRDTSKNQFFLQLNSVTAEDTATYYCARSINHGGYSYVVDAWGPGASVTVSS VL: DVQMTHSPSYLAASPGESVSISCKTSKNISNYLVWYQQKPGEAYKLLIYSGSTLQSGTPSRFSGSGSGTDFTLTIRSLEPEDFGLYFCQQYYEKPFTFGSGTKLEIKR | no binding (tested: 20 nM) | binds | binds
2 | rat anti-human CDH6 monoclonal antibody rG061 (antibody, rat IgG2b, V domains shown, Purified from hybridoma supernatant; also called rG061 antibody) VH: EVQLQESGPGLVKPSQSLSLTCSVTGYSITTYYWGWIRKFPGNKMEWMGYISYSGRTSYNPSLKSRMSITRDASKNQFFLQLNSVTTDDTATYYCARSPINHGGYWYFDFWGPGTMVTVSS VL: DVQMTQSPSYLAASPGESVSISCKATKSISNYLAWYQQKPGEAYKVLIYSGSTLQSGTPSRFSGSGSGTDFTLTIRSLEPEDFGLYSCQQYYEKPLTFGSGTKLEIKR | no binding (tested: 20 nM) | binds | binds

Now from value to binder:

Row | binding result [1] | binding result [2] | binding result [3] | Binder
3 | no binding (tested: 20 nM) | binds | binds | rat anti-human CDH6 monoclonal antibody rG019 (antibody, rat IgG2b, V domains shown, Purified from hybridoma supernatant; also called rG019 antibody) VH: QVQLQQSGAELVKPGSSVKISCKASGYTFTRNFMHWIKQQPGNGLEWIGWIYCGDGETEYNQKFNGKATLTADRSSSTAYMELSRLTSEDSAVYFCARGVYGGFAGGYFDFWGQGVMVTVSS VL: DIQMTQSPSLLSASVGDRVTLNCKASQNIYKNLAWYQQKLGEGPKLLIYDANTLQTGIPSRFSGSGSGSDFTLTISSLQPEDVATYFCQQYYSGWAFGGVTNLELKRA
4 | no binding (tested: 20 nM) | binds | binds | rat anti-human CDH6 monoclonal antibody rG056 (antibody, rat IgG2b, V domains shown, Purified from hybridoma supernatant; also called rG056 antibody) VH: EVQLQESGPGLVKPSQSLSLTCSVTDYSITTYFWGWIRKFPGNKMEWMGYMSYRGGTSYNPSLKSRISITRDTSKNQFFLQLNSVTTEDTATYYCARCPNYGGHSLVFDYWGQGVMVTVSS VL: DVQMTQSPSSLAASPGESVSISCRATKSIGIYLAWYQQKPGKTFKLLIYSGSTLQSGTPSRFSGSGSGTDFTLTIRSLEPEDFGLYFCQQFYENPFTFGSGTKLEIRR
